Laboratory results from publication PMC4631590.

Columns and labels:
[1] = target: Corynebacterium efficiens fatty-acid synthase type I (FAS B) (C. efficiens) (UniProt Q8FMV7); experiment: SEC; Superose 6 XK 16/70; 0.1 M bis-tris propane pH 6.8, 0.2 M NaCl, 10% glycerol
[2] = target: Corynebacterium ammoniagenes fatty-acid synthase type I (C. ammoniagenes); experiment: SEC; 0.1 M sodium phosphate pH 6.5, 0.1 M NaCl, 5 mM sodium malonate

| Substance | stoichiometry N [1] | stoichiometry N [2] |
| --- | --- | --- |
| Corynebacterium efficiens fatty-acid synthase type I (FAS B) (from UniProt Q8FMV7 1-3022) (enzyme) | 6 | – |
| Corynebacterium ammoniagenes fatty-acid synthase type I (enzyme) | – | 6 |
